Test results published in publication PMC10178869.

T1: E. coli Aquaporin Z (AqpZ) (E. coli), P60844
T1 chain: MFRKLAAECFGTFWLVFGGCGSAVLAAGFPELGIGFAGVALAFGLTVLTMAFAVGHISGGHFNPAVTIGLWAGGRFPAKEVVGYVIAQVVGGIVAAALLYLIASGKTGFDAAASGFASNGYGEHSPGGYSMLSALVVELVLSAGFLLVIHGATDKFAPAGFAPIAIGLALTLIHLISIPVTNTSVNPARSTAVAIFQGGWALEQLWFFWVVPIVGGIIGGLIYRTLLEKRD


What was measured:
[1] = molecular target: AqpZ nanodiscs (AqpZ, MSP1E3D1 and DOPC/POPG 4:1) (E. coli | not stated) (UniProt P60844); test: mass photometry; 10 nM AqpZ nanodiscs in TEN buffer (300 mM NaCl); nanodisc with nanodisc
[2] = molecular target: T1, E. coli Aquaporin Z (AqpZ) (E. coli), …; test: SDS-PAGE with or without heating; purified AqpZ nanodiscs (ND) or AqpZ in OG micelles, heated to 70 °C or unheated; settings: remark: other sources report otherwise

stoichiometry N [1]	stoichiometry N [2]	Molecule
2	–	AqpZ nanodiscs (AqpZ, MSP1E3D1 and DOPC/POPG 4:1) (from UniProt P60844 1-231) (complex)
–	4	E. coli Aquaporin Z (AqpZ), P60844 1-231 (natural protein) MFRKLAAECFGTFWLVFGGCGSAVLAAGFPELGIGFAGVALAFGLTVLTMAFAVGHISGGHFNPAVTIGLWAGGRFPAKEVVGYVIAQVVGGIVAAALLYLIASGKTGFDAAASGFASNGYGEHSPGGYSMLSALVVELVLSAGFLLVIHGATDKFAPAGFAPIAIGLALTLIHLISIPVTNTSVNPARSTAVAIFQGGWALEQLWFFWVVPIVGGIIGGLIYRTLLEKRD
